The target of experiment [1] is T1, human PTK7 protein (extracellular sequence of human PTK7 with C-terminal 6×His tag) (human, UniProt Q13308 31-704).
T1 construct: extracellular domain; Expressed transiently in HEK293 cells; also called human PTK7-His; human PTK7-His protein
T1 sequence: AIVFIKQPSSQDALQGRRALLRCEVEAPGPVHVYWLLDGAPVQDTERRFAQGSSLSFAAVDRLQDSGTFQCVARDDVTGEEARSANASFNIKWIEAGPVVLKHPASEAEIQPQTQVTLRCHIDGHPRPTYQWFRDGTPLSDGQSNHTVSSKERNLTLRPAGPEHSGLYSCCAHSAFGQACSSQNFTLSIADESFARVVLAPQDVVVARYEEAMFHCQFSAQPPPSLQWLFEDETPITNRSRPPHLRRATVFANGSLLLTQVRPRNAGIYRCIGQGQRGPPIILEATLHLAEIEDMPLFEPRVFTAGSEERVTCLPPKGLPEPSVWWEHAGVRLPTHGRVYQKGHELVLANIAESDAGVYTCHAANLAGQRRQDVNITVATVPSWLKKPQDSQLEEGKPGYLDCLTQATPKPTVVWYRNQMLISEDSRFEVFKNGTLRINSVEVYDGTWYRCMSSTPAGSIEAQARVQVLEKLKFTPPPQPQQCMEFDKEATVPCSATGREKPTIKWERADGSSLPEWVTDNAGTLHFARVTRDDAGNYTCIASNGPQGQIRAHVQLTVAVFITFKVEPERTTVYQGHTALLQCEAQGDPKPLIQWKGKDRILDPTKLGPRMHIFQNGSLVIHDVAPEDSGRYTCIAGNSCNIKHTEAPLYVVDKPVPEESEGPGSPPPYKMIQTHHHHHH
As to the kind of experiment: competition ELISA on coated human PTK7 protein; competitor: biotin-labelled 64A10HZ at a fixed concentration. The method, then: The human PTK7 protein was diluted to reach 1 μg/ml by using the CBS coating liquid, coated by a 96-well microtiter plate at a density of 100 μl/well, and stood overnight at 4° C.; and after the plate was washed and blocked, the biotin-labeled antibody and the to-be-detected antibody were added, and incubated for 2 h at room temperature. After the plate was washed, the secondary antibody was added for incubation, and finally was subjected to color development, then the reaction was terminated, and the absorbance at OD₄₅₀ nm was read by the microplate reader. The original data was imported into software for nonlinear curve fitting (four parameters).
A general note: An ELISA detects its analyte on a solid surface through an enzyme-linked reagent.

In experiment [2] the target is T2, human PTK7 on cells (tumor cells endogenously expressing PTK7); CHO-hPTK7, CHO-S-hPTK7 and 293T-hPTK7 … (human, UniProt Q13308 31-1070).
T2 construct: whole, on cells; The cell line of each value is named under assay; also called H1299; H358
T2 sequence (looked up): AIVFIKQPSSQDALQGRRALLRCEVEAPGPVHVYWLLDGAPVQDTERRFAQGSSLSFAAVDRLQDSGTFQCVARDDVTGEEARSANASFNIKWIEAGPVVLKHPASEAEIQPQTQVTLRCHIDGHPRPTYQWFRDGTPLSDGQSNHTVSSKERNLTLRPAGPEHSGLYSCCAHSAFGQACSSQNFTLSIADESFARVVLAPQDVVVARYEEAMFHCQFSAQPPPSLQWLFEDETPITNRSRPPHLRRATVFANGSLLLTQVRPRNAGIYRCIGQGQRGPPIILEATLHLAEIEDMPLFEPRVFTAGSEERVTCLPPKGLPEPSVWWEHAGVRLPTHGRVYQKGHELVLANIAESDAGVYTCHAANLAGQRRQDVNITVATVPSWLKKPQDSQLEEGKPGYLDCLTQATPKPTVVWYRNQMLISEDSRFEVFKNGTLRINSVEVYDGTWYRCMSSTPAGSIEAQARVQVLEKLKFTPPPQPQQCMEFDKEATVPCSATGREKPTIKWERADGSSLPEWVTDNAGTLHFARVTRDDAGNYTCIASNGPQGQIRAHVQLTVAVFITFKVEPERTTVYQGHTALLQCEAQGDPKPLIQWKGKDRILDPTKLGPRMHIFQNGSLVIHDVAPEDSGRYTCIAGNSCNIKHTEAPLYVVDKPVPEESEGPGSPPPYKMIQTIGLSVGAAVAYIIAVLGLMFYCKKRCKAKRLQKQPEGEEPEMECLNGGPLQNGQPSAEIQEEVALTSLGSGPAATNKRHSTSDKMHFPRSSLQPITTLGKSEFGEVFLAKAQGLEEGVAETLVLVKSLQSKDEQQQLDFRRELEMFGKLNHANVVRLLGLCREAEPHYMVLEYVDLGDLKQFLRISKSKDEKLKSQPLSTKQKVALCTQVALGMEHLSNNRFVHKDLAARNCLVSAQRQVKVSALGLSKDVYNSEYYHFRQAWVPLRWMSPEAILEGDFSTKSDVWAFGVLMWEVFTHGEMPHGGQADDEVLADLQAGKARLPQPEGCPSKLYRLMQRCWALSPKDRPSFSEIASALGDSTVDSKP
As to the kind of experiment: competition flow cytometry on 293T-hPTK7 cells, streptavidin-PE; competitor: biotin-labelled Hu24. On the technique in general: A flow cytometer gives signals particle by particle.

B1: 64A10HZ (anti-human PTK7 humanized antibody) (antibody, human IgG1, kappa, V domains shown)
VH: QVQLQESGPGLVKPSETLSLTCTVSGFSLTSYGVYWVRQPPGKGPEWLGVIWTSGNTNYNPSLKSRLTISKDNSKNQVSLKLSSVTAADTAVYYCVKHDGGNYVGVMNYWGQGTLVTVSS
VL: EIVMTQSPDFQSVTPKEKVTITCRASQSISDYLHWYQQKPDQSPKLLIKYASQSISGVPSRFSGSGSGSDFTLTINSLEAEDAATYYCQNGHSFPPTFGQGTKLEIKR
notes: Human IgG1 heavy chain constant region and human Kappa light chain constant region; expressed in CHO-S cells
Regarding B1, the “IC50 (read off the curve)” value in experiment [1] is roughly 0.2 µg/mL.

B2: Hu24 (PTK7 control antibody, taken from Hu24 in the Patent CN201580030255) (antibody)
chain 1: QVQLVQSGPEVKKPGASVKVSCKASGYTFTDYAVHWVRQAPGKRLEWIGVISTYNDYTYNNQDFKGRVTMTRDTSASTAYMELSRLRSEDTAVYYCARGNSYFYALDYWGQGTSVTVSS
chain 2: EIVLTQSPATLSLSPGERATLSCRASESVDSYGKSFMHWYQQKPGQAPRLLIYRASNLESGIPARFSGSGSGTDFTLTISSLEPEDFAVYYCQQSNEDPWTFGGGTKLEIK
Consider B2, for which the “IC50 (read off the curve)” value in experiment [2] was roughly 0.3 µg/mL.

The values above are taken from US20260250420A1 (SICHUAN KELUN BIOTECH BIOPHARMACEUTICAL, published 2026).
